Values quoted from earlier work in PMC5209733, “U24 from Roseolovirus interacts strongly with Nedd4 WW Domains” (Scientific Reports, 2017).

How the values were obtained:
[1] = tested on: TCR/CD3ε receptors in T-cells; settings: PY motif responsible for down-regulation
Excerpt: (§1) Within the proline rich region of U24 is a PY motif that is conserved in both HHV-6A and HHV-7 (Fig. 1a). […] However, the exact mechanism by which this occurs is unknown.

[2] = tested on: transferrin receptor (TfR)
Excerpt: as §1

Nedd4-WW1 domain = settings: found previously
Description: In order to compare with previously reported results, experiments were carried out on four relevant WW domains: the second and the third WW domain of rat Nedd4 (rNedd4-WW2 and rNedd4-WW3/4, where WW3/4 is a homologue of the fourth WW domain in human), and the pair of third WW domains from human Nedd4 (hNedd4-WW3* and hNedd4L-WW3*). The WW3 domains are indicated with a star because this type of WW domain is missing in rat and mouse Nedd4[36][37]. Nedd4-WW1 domain was not used as it was found previously not to bind U24. The WW domains mentioned above were fused to the C-terminus of GST prote ...

[3] = tested on: human Nedd4 family E3 ubiquitin ligases: Nedd4-1, Nedd4-2, AIP4, Smurf1, Smurf2, WWP1, and WWP2; settings: pull-down assays
Excerpt: However, precise binding affinities are hard to extract from such results. […] We have focussed our studies on human Nedd4 WW domains (hNedd4 and hNedd4L, Fig. 1b) given their relevance in the CNS, noted above. As controls, we have u ...

Fyn SH3 = settings: association with Fyn SH3
Excerpt: One possible way in which U24 may be implicated in MS is through the mimicry of myelin basic protein (MBP) because the two proteins share a seven amino acid stretch that contains a PxxP motif (Fig. 1a). This segment is essential for MBP to participate in Fyn-mediated signalling pathways by a direct but non-canonical association with the Fyn-SH3 domain[11]. Disruption of these signalling pathways has a large impact on oligodendrocyte differentiation and maturation, processes that are perturbed in MS patients. Within this PxxP motif and just before it are two threonine residues (T95 and T98), wh ...

Row | Molecule | recycling of TCR/CD3ε receptors to the cell surface [1] | modulation of transferrin receptor [2] | binding to Nedd4-WW1 (Nedd4-WW1 domain) | binding to Nedd4 family E3 ubiquitin ligases [3] | Kd (Fyn SH3)
1 | U24: putative tail-anchored membrane protein that is unique to roseoloviruses (protein) MDPPRTPPPSYSEVLMMDVMCGQVSPHVINDTSFVECIPPPQSRPAWNLWNNRRKTFSFLVLTGLAIAMILFIVFVLYVFHVNRQRR | blocked from recycling back to the cell surface | down-modulate the transferrin receptor | not to bind | can bind to most of the seven human Nedd4 family E3 ubiquitin ligases | –
2 | MBP: myelin basic protein (protein, UniProt P02686 1-304, looked up) Myelin basic protein: MGNHAGKRELNAEKASTNSETNRGESEKKRNLGELSRTTSEDNEVFGEADANQNNGTSSQDTAVTDSKRTADPKNAWQDAHPADPGSRPHLIRLFSRDAPGREDNTFKDRPSESDELQTIQEDSAATSESLDVMASQKRPSQRHGSKYLATASTMDHARHGFLPRHRDTGILDSIGRFFGGDRGAPKRGSGKDSHHPARTAHYGSLPQKSHGRTQDENPVVHFFKNIVTPRTPPPSQGKGRGLSLSRFSWGAEGQRPGFGYGGRASDYKSAHKGFKGVDAQGTLSKIFKLGGRDSRSGSPMARR | – | – | – | – | 4 to 8 µM
